In paper PMC8905165:

Target: GMPCPP microtubules containing 7% rhodamine-tubulin
Test: single-molecule TIRF microscopy on immobilised microtubules; GMPCPP microtubules held on the coverslip by anti-β-tubulin antibodies, motors in solution (CENP-E483-2mNeon 50 nM, CENP-E483LZ-2mNeon 5 nM, CENP-E754-2mNeon 3.5 nM, CENP-EFL-mNeon 12.5 nM; landing rates at 3.5 nM); 80 mM PIPES pH 6.9, 5 mM MgCl2, 2 mM ATP, 1 mM DTT, oxygen scavenger mix; 30°C; residency time is the decay constant of a single-exponential fit

| Substance | residency time on the microtubule | landing rate (events µm^−1 min^−1) |
| --- | --- | --- |
| CENP-E483LZ-2mNeon (from UniProt Q02224 1-483) | 6.36 s | – |
| full-length human CENP-E-mNeonGreen, Q02224 1-2701 | 37.1 s | 0.147 |
